From US20250223354A1 (BIOTHEUS, published 2025)

How the values were obtained:
[1] = biological target: T1, cynomolgus TIGIT overexpressed on CHO cells (cynomolgus, UniProt A0A7N9I9V4 89-312); test: flow cytometry, CHO-cynoTIGIT cells
T1 construct: whole, on cells; also called CHO-cynoTIGIT cells
Text: (§1) Specifically, CHO cells overexpressing human TIGIT (CHO-huTIGITcells), CHO cells overexpressing cynomolgus TIGIT (CHO-cynoTIGIT cells) and CHO cells overexpressing mouse TIGIT (CHO-muTIGIT cells) were generated by transfection of the pCHO1.0 vector (purchased from Invitrogen) with cDNA encoding human TIGIT, cynomolgus TIGIT and mouse TIGIT cloned into the multiple cloning site (MCS), respectively, followed by pressure screening. The overexpressing cells were expanded and adjusted to an appropriate cell density, and added to a 96-well flow cytometry plate. After centrifugation, the cells were added with a gradiently diluted sample to be tested, and incubated at 4° C. for 30 minutes. The cells were washed twice with PBS, and added with a fluorescent secondary antibody correspondingly diluted to an appropriate concentration, then incubated at 4° C. for 30 minutes, and washed twice with PBS. Cells were resuspended with PBS, and detected on a CytoFlex flow cytometer, and the corresponding MFI was calculated. Graphpad software was used for graphical analysis to obtain EC₅₀ values.

[2] = biological target: T2, human TIGIT expressed on cells (human, UniProt Q495A1 22-244); test: flow cytometry, CHO-huTIGIT cells
T2 construct: whole, on cells; cDNA encoding human TIGIT in pCHO1.0 for CHO cells; also called CHO-huTIGIT cells
T2 sequence (looked up): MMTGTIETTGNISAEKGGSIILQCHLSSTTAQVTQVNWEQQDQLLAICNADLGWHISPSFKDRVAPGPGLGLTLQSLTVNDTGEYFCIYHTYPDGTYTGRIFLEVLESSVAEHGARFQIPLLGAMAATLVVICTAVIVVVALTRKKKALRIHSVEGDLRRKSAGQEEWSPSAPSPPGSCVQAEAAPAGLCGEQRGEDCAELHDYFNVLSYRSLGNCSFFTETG
Text: as §1

[3] = biological target: T2, human TIGIT expressed on cells; test: flow cytometry, competition with human CD155-mouse IgG2a Fc (2 ug/mL) on CHO-huTIGIT cells
Protocol: Specifically, the CHO-huTIGIT cells were expanded and adjusted to a cell density of 2×10⁶ cells/mL, added to a 96-well flow plate at 100 μL/well, and centrifuged for later use. The purified antibody was diluted 3-fold with PBS starting at 400 nM for a total of 12 concentration gradients. The diluted sample was added at 60 μL/well to the cells-carrying 96-well flow plate, and incubated at 4° C. for 30 minutes. […] APC-conjugated goat anti-mouse IgG antibody diluted 100-fold with PBS was added at 100 μL/well, incubated at 4° C. for 30 minutes, and washed twice with PBS. Cells were resuspended with PBS at 100 μL/well, and detected on a CytoFlex flow cytometer, and the corresponding MFI was calculated.

[4] = biological target: T3, mouse TIGIT overexpressed on CHO cells (mouse, UniProt P86176 29-249); test: flow cytometry, CHO-muTIGIT cells
T3 construct: whole, on cells; also called CHO-muTIGIT cells
T3 sequence (looked up): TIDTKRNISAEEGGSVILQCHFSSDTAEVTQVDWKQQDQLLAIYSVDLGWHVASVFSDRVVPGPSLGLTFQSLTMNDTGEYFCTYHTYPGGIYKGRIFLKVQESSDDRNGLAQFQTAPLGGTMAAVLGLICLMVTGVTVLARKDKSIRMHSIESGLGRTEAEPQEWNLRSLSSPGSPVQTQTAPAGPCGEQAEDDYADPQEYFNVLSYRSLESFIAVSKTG
Text: as §1

human TIGIT-his protein = biological target: T4, human TIGIT-his protein (human, UniProt Q495A1 22-141); test: BLI (ForteBio), antibody on AHQ sensor, 100 nM antigen, monovalent, 1:1 model
T4 construct: not shown: his tag
T4 sequence: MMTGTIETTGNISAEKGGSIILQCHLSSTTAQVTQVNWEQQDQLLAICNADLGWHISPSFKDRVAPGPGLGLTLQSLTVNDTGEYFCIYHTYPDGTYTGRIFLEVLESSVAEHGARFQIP
Protocol: (§2) The antibody-loaded sensor was incubated in 100 nM target antigen to the plateau phase, and then the sensor was transferred to an analysis buffer and incubated for at least 2 minutes for measuring dissociation rate. The kinetic analysis was performed using a 1:1 binding model.

[5] = biological target: T5, cynomolgus monkey TIGIT-his protein (cynomolgus monkey); test: as above
T5 construct: also called Cynomolgus TIGIT-his; not shown: his tag
T5 sequence (chain, as listed by the source): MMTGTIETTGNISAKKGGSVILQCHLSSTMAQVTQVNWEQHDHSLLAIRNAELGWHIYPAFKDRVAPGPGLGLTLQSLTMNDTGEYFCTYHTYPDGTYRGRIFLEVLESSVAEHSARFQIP
Protocol: as §2

T1 sequence (A0A7N9I9V4 entry or part of it): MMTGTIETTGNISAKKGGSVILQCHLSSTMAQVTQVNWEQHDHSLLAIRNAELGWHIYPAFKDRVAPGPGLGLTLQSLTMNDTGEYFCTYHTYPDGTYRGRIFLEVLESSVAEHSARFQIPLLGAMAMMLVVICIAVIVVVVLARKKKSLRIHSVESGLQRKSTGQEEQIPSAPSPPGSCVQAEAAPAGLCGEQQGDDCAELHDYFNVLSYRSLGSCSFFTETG

B1: anti-TIGIT monoclonal antibody ADI-55812 (antibody, V domains shown)
VH: QVQLVQSGAEVKKPGASVKVSCKASGYAFTGYYMHWVRQAPGQGLEWMGSIIPFSGEANYAQKFQGRVTMTRDTSISTAYMELSRLRSDDTAVYYCARGPGSLDRLWYYYYGMDVWGQGTTVTVSS
VL: not shown
B1 was tested, and the EC50 [1] was 1.5 nM, the EC50 [2] was 0.964 nM and the IC50 [3] was 0.296 nM. The binding result [4] was “no binding”, the Kd (human TIGIT-his protein) was 1.9 nM and the Kd [5] was 34 nM.
